Target: NC4-antiserum (rabbit polyclonal antiserum against the collagen alpha1 (IX) NC4-peptide coupled to KLH)
Test: inhibition ELISA: free NC4-peptide against binding of NC4-antiserum to solid-phase NC4-peptide

B1: NC4-peptide NH2-…^64-CONH2 (peptide)
peptide: H-CGQDDLPGFDLISQFQ-NH2
Work on B1 yielded a peptide concentration showing efficient inhibition of the binding of 0.3 ng/mL.
